Legend:
[1] = target: HLA-A*32:01; test: IEDB peptide-MHC binding, purified MHC/competitive/radioactivity; filed as Kd, often an IC50 or EC50 that approximates it; ≥ and ≤ were set here for values at or beyond the usual limits of such assays
[2] = target: HLA-A*02:01; test: IEDB peptide-MHC binding, purified MHC/competitive/fluorescence; ≥ and ≤ were set here for values at or beyond the usual limits of such assays
[3] = target: HLA-A*24:02; test: as above
[4] = target: HLA-B*53:01; test: IEDB peptide-MHC binding, purified MHC/competitive/radioactivity; filed as Kd, often an IC50 or EC50 that approximates it; ≥ and ≤ were set here for values at or beyond the usual limits of such assays
[5] = target: HLA-B*44:02; test: as above
[6] = target: HLA-B*44:03; test: as above
[7] = target: HLA-A*01:01; test: IEDB peptide-MHC binding, purified MHC/direct/fluorescence; filed as Kd, often an IC50 or EC50 that approximates it; ≥ and ≤ were set here for values at or beyond the usual limits of such assays; details: source organism: Homo sapiens
[8] = target: HLA-A*11:01; test: as above
[9] = target: HLA-A*69:01; test: as above; details: source organism: Homo sapiens
[10] = target: HLA-A*01:01; test: IEDB peptide-MHC binding, purified MHC/competitive/radioactivity; filed as Kd, often an IC50 or EC50 that approximates it; ≥ and ≤ were set here for values at or beyond the usual limits of such assays
[11] = target: HLA-A*03:01; test: as above; details: source organism: Triticum aestivum
[12] = target: HLA-A*11:01; test: as above
[13] = target: HLA-A*23:01; test: as above
[14] = target: HLA-A*24:02; test: as above
[15] = target: HLA-A*26:01; test: as above
[16] = target: HLA-A*29:02; test: as above
[17] = target: HLA-A*30:02; test: as above
[18] = target: HLA-A*31:01; test: as above
[19] = target: HLA-A*33:01; test: as above
[20] = target: HLA-A*68:01; test: as above
[21] = target: HLA-A*03:01; test: IEDB peptide-MHC binding, purified MHC/direct/fluorescence; filed as Kd, often an IC50 or EC50 that approximates it; ≥ and ≤ were set here for values at or beyond the usual limits of such assays; details: source organism: Campylobacter jejuni RM1221
[22] = target: HLA-B*40:01; test: as above
[23] = target: HLA-A*02:02; test: IEDB peptide-MHC binding, purified MHC/competitive/radioactivity; filed as Kd, often an IC50 or EC50 that approximates it; ≥ and ≤ were set here for values at or beyond the usual limits of such assays; details: source organism: Vaccinia virus WR
[24] = target: HLA-A*02:03; test: as above
[25] = target: HLA-A*02:06; test: as above; details: source organism: Vaccinia virus WR
[26] = source organism: Dengue virus 2 Jamaica/1409/1983
[27] = source organism: Zaire ebolavirus
[28] = source organism: Dengue virus 1 Brazil/97-11/1997
[29] = source organism: Vaccinia virus WR
[30] = source organism: Dengue virus 4 Philippines/H241/1956
[31] = source organism: Dengue virus 2 Peru/IQT2913/1996
[32] = source organism: Sudan ebolavirus
[33] = source organism: Triticum aestivum
[34] = source organism: Dengue virus 3 Martinique/1243/1999
[35] = source organism: SARS coronavirus Tor2
[36] = source organism: Mammarenavirus mopeiaense
[37] = source organism: Mammarenavirus lassaense
[38] = source organism: Mammarenavirus guanaritoense
[39] = source organism: Mammarenavirus machupoense

SQQKADWIPL
Kd [1, 26]: 2790 nM

RTLAAMPEE
IC50 [2, 27]: ≥ 351000 nM | IC50 [3, 27]: 6750 nM

QTQSRPIQN
IC50 [3, 27]: ≥ 128000 nM

LALREFKEF
Kd [4, 28]: 1730 nM

RTYGVNYTF
Kd [1, 29]: 0.261 nM

IEKTKTDFGF
Kd [5, 30]: 1730 nM

QPTELKYSW
Kd [4, 26]: 11 nM

AEPIDIQTW
Kd ([6]; source organism: Homo sapiens): 66 nM

KFMSNGEHV
IC50 [2, 29]: 27700 nM | IC50 [3, 29]: 4440 nM

RTFNRTHYW
Kd [1, 29]: 0.243 nM

AEAIFKLTY
Kd [5, 26]: 3.67 nM | Kd [6, 26]: 34.7 nM

ADSGCVINW
Kd [5, 28]: 70.7 nM

EEREIPERSW
Kd [5, 26]: 66.5 nM | Kd [6, 26]: 242 nM

RTFLIDLAF
Kd [1, 29]: 0.48 nM

TVMAFHLTT
Kd [1, 31]: 19200 nM

GAFFLYDRL
IC50 [2, 32]: ≥ 158000 nM | IC50 [3, 32]: ≥ 122000 nM

LTGTFVTAF
Kd [1, 29]: 8.81 nM

VNNLEHGLF
IC50 [3, 27]: 25400 nM

GSEDRDLLY
Kd [7]: 42.6 nM | Kd ([8]; source organism: Homo sapiens): 6940 nM | Kd [9]: 3960 nM

MEHKYSWKSW
Kd [1, 28]: 2040 nM | Kd [5, 28]: 11.2 nM | Kd [6, 28]: 137 nM

VSFQQPLQQY
Kd [10, 33]: 38.5 nM | Kd [11]: 2340 nM | Kd [12, 33]: 138 nM | Kd [13, 33]: ≥ 42400 nM | Kd [14, 33]: ≥ 70300 nM | Kd [15, 33]: ≥ 43000 nM | Kd [16, 33]: 2840 nM | Kd [17, 33]: 6090 nM | Kd [18, 33]: ≥ 70000 nM | Kd [19, 33]: ≥ 70000 nM | Kd [20, 33]: ≥ 70200 nM

QILLMRTTW
Kd [1, 28]: 22 nM

KVSDSNLHK
Kd [21]: 190 nM | Kd ([8]; source organism: Campylobacter jejuni RM1221): 4.6 nM

GPLTTLWEGS
Kd [1, 28]: 18200 nM

KRSNTTGKL
IC50 [3, 27]: 66100 nM

RVLFNNFKI
Kd [1, 29]: 0.885 nM

QILASILSI
Kd [1, 29]: 22.1 nM

NVAYGAVSF
Kd [1, 29]: 136 nM

NEGIMAIGI
Kd [5, 28]: 18.8 nM | Kd [6, 28]: 109 nM

NELNYILWE
Kd [6, 34]: 270 nM

AFHKDGAFF
IC50 [3, 32]: 9670 nM

ATSRTLSYY
Kd [10, 35]: 4.81 nM | Kd [12, 35]: 28.5 nM | Kd [13, 35]: ≥ 77800 nM | Kd [14, 35]: ≥ 35700 nM | Kd [15, 35]: 1940 nM | Kd [16, 35]: 12 nM | Kd [17, 35]: 1.03 nM | Kd [18, 35]: 3880 nM | Kd [19, 35]: ≥ 77700 nM | Kd [20, 35]: 1200 nM

VEPGQLKLNW
Kd [5, 26]: 389 nM | Kd [6, 26]: 63.2 nM

TTQTSALSI
Kd [1, 29]: 145 nM

RHLIFSYAF
Kd [1, 29]: 13.6 nM

NESDPEGALW
Kd [5, 28]: 26.6 nM | Kd [6, 28]: 134 nM

YFTNDVSFL
Kd [10, 35]: 12900 nM | Kd [13, 35]: 18300 nM | Kd [14, 35]: ≥ 78100 nM | Kd [15, 35]: 16100 nM | Kd [16, 35]: ≥ 75000 nM | Kd [17, 35]: ≥ 96800 nM

AEQIVLGVI
Kd ([22]; source organism: Mycobacterium tuberculosis variant bovis): 61.1 nM

EEHKETWHY
Kd [5, 30]: 203 nM | Kd [6, 30]: 16.9 nM

LPMTVAAMG
Kd ([4]; source organism: Dengue virus 3 Sri Lanka/1266/2000): 3540 nM

ITLVVISVI
Kd [23]: 15100 nM | Kd [24, 29]: 1810 nM | Kd [25]: 1030 nM | Kd [1, 29]: ≥ 35300 nM

YIAVNDKALY
Kd [10, 35]: 12.9 nM | Kd [13, 35]: ≥ 55000 nM | Kd [14, 35]: ≥ 70300 nM | Kd [15, 35]: 2600 nM | Kd [16, 35]: 8.81 nM | Kd [17, 35]: 141 nM

KLFYVYYNL
Kd [1, 29]: 0.344 nM

KDFFSSHPL
IC50 [2, 27]: ≥ 249000 nM | IC50 [3, 27]: 55100 nM

GYTMHANYI
Kd [10, 35]: ≥ 78100 nM | Kd [13, 35]: 6960 nM | Kd [14, 35]: 13500 nM | Kd [15, 35]: ≥ 77900 nM | Kd [16, 35]: ≥ 88200 nM | Kd [17, 35]: ≥ 78900 nM

AVLTGGVTL
Kd [1, 28]: 6690 nM

PFDAVLYYH
IC50 [3, 27]: 4690 nM

IKIPTHRHI
Kd [10, 36]: 16600 nM | Kd [13, 36]: ≥ 24800 nM | Kd [14, 36]: ≥ 57100 nM | Kd [15, 36]: ≥ 77900 nM | Kd [16, 36]: ≥ 78900 nM | Kd [17, 36]: ≥ 76900 nM

HFAIGLALY
Kd [10, 35]: ≥ 119000 nM | Kd [13, 35]: 11500 nM | Kd [14, 35]: 11100 nM | Kd [15, 35]: 240 nM | Kd [16, 35]: 4.71 nM | Kd [17, 35]: 13.2 nM

AEIPLQWIA
Kd [5, 34]: 68.6 nM | Kd [6, 34]: 634 nM

YFESYVRPFV
Kd [10, 37]: ≥ 70400 nM | Kd [13, 37]: 1890 nM | Kd [14, 37]: 12800 nM | Kd [15, 37]: ≥ 46100 nM | Kd [16, 37]: 3940 nM | Kd [17, 37]: 4250 nM

EEPVPMSTY
Kd [5, 34]: 360 nM

VFYLYLTFYF
Kd [10, 35]: 566 nM | Kd [13, 35]: 0.0611 nM | Kd [14, 35]: 0.0798 nM | Kd [15, 35]: 621 nM | Kd [16, 35]: 0.0415 nM | Kd [17, 35]: 12400 nM

CVIASSGMLW
Kd [15, 34]: 1220 nM | Kd [4, 34]: 22.2 nM

YAPFARLLN
IC50 [2, 27]: ≥ 87800 nM | IC50 [3, 27]: 19300 nM

IRHLFGNYI
Kd [10, 38]: ≥ 22200 nM | Kd [13, 38]: ≥ 22100 nM | Kd [14, 38]: ≥ 43700 nM | Kd [15, 38]: ≥ 77900 nM | Kd [16, 38]: 571 nM | Kd [17, 38]: ≥ 24100 nM

VMPLSAPTL
Kd [10, 35]: ≥ 78100 nM | Kd [13, 35]: 6450 nM | Kd [14, 35]: 13300 nM | Kd [15, 35]: ≥ 77900 nM | Kd [16, 35]: 7050 nM | Kd [17, 35]: ≥ 75000 nM

GSAKLRWFVE
Kd [1, 26]: ≥ 22200 nM

SHLTTLATI
IC50 [2, 27]: 13200 nM | IC50 [3, 27]: 402 nM

GYVVSNFEGV
Kd [10, 39]: ≥ 70400 nM | Kd [13, 39]: ≥ 70000 nM | Kd [14, 39]: ≥ 70300 nM | Kd [15, 39]: ≥ 69700 nM | Kd [16, 39]: ≥ 70800 nM | Kd [17, 39]: ≥ 69700 nM

TLYAVATTI
Kd [24, 30]: 11.2 nM | Kd [1, 30]: 356 nM

NEIRALMAL
Kd ([22]; source organism: Mycobacterium tuberculosis): 18.2 nM

ADAGFMKQY
Kd [10, 35]: ≥ 87700 nM | Kd [13, 35]: ≥ 77800 nM | Kd [14, 35]: ≥ 77600 nM | Kd [15, 35]: ≥ 81500 nM | Kd [16, 35]: 15300 nM | Kd [17, 35]: ≥ 46200 nM

QRWGGTCHI
IC50 [3, 27]: 43300 nM

KTTAKEVAL
Kd [1, 30]: ≥ 21100 nM

ISLFYTFAI
Kd [1, 29]: 0.567 nM

QPTELRYSW
Kd [4, 31]: 52.6 nM

AERVLDWLEK
Kd [5, 28]: 3270 nM

AELEDGAYRI
Kd [5, 26]: 16 nM | Kd [6, 26]: 17.9 nM

HAYQGDYKL
IC50 [2, 27]: ≥ 78000 nM | IC50 [3, 27]: 20900 nM

TTELRTFSI
IC50 [2, 27]: 68300 nM | IC50 [3, 27]: 12200 nM

FHKDGAFFL
IC50 [2, 32]: ≥ 92900 nM | IC50 [3, 32]: 6730 nM

GTNGNHMQI
IC50 [2, 32]: 62900 nM | IC50 [3, 32]: 3020 nM

TPEGIIPSMF
Kd [4, 26]: 417 nM

AMYADDTAGW
Kd [5, 26]: 124 nM

HYWTTQDEG
IC50 [3, 27]: 42800 nM

MGEDGCWYGM
Kd [1, 34]: ≥ 36400 nM

AGFAAGLTY
Kd [10, 37]: ≥ 38500 nM | Kd [13, 37]: ≥ 39200 nM | Kd [14, 37]: ≥ 77500 nM | Kd [15, 37]: ≥ 61800 nM | Kd [16, 37]: 6130 nM | Kd [17, 37]: 178 nM

From the Immune Epitope Database (IEDB)
